Holding throughout (test): ITC; synthetic peptide in the syringe titrated into GD-26 Fab or GD-26 IgG (10 μM) in the cell; 25 °C; 50 mM Tris, 150 mM NaCl, pH 7.5; one-set-of-sites model
Common to all, as to conditions: both partners purified
On the technique in general: ITC needs no label: the signal is the heat of the interaction.

Experiment [1] addresses T1, TD peptide (GTGATPADD), peptide V from the C terminus of HmBRI D94N (Haloarcula marismortui HmBRI C terminus …).
T1 construct: nine residues at the C terminus of Haloarcula marismortui bacteriorhodopsin I (HmBRI); residue numbers 1-9 count on: the TD peptide; also called TD tag; wild-type TD peptide; source: synthetic peptide
T1 chain: GTGATPADD

Experiment [2] deals with T2, TD peptide A7T (A7T (stands in the printed letters)).
T2 construct: TD peptide (C terminus of HmBRI) with A7T; numbers count on: the TD peptide; source: synthetic peptide
T2 chain: GTGATPTDD

Experiment [3] addresses T3, TD peptide A7Q (A7Q (stands in the printed letters)).
T3 construct: TD peptide (C terminus of HmBRI) with A7Q; numbers count on: the TD peptide; source: synthetic peptide
T3 chain: GTGATPQDD

Experiment [4] deals with T4, TD peptide P6G (P6G (stands in the printed letters)).
T4 construct: TD peptide (C terminus of HmBRI) with P6G; numbers count on: the TD peptide; source: synthetic peptide
T4 chain: GTGATGADD

Experiment [5] addresses T5, TD peptide P6F (P6F (stands in the printed letters)).
T5 construct: TD peptide (C terminus of HmBRI) with P6F; numbers count on: the TD peptide; source: synthetic peptide
T5 chain: GTGATFADD

The target of experiment [6] is T6, TD peptide D9N (D9N (stands in the printed letters)).
T6 construct: TD peptide (C terminus of HmBRI) with D9N; numbers count on: the TD peptide; source: synthetic peptide
T6 chain: GTGATPADN

Experiment [7] deals with T7, TD peptide M1 (Met attached to the N terminus) (Haloarcula marismortui HmBRI C-terminal …).
T7 construct: TD peptide (C terminus of HmBRI) with one Met attached before Gly1; source: synthetic peptide
T7 chain: MGTGATPADD

A word on the Kd: it is the free concentration of one partner at which half of the binding sites on the other are occupied at equilibrium, for simple one-to-one binding.

B1: GD-26 Fab (antigen-binding fragment of monoclonal antibody GD-26) (Fab, V domains shown)
VH: QVQLRQSGPELVKPGASVKMSCRASGYTFTNYNIHWVRQRPGQGLEWIGWIYPVDGTTKYNEKFKDKTTLTSDKSSSTAYMSLSGLTSEDSAIYFCARGLDNWGQGTSVTVSS
VL: DVVLTQTPLSLSVTIGQPASISCRSSQRLLYSNGKTYLNWFQQRPGQAPKYLMFQVSKLGPGIPARFSGSGSETDFTLKISRVEAEDLGVYYCFQGTFFPHTFGGGTKLEMK
notes: Fab heavy chain of GD-26; whole chain in PDB 7DOH; light chain of GD-26; the Fab was secreted; source: Expi293F, transient co-transfection, secreted; purified (HisTrap Excel, Superdex 200 gel filtration)
Regarding B1, the Kd in experiment [1] came to 12 nM; in experiment [2], 449 nM; in experiment [3], 59.3 nM; in experiment [4], 892 nM; in experiment [5] it was 78.2 nM; in experiment [6], 132 nM. The molecule further came in with a Kd in experiment [7] of 25.1 nM.

(Values after PMC9292375, “Structural basis of an epitope tagging system derived from Haloarcula marismortui bacteriorhodopsin I D94N and its monoclonal antibody GD‐26” (The Febs Journal, 2021).)
